Measured values taken from US20210130436A1 (published 2021).

Key:
[1] = target: T1, human PD-L1, full length, expressed on transfected HEK293 cells (human, UniProt Q9NZQ7 19-290); test: flow cytometry, HEK293 cells transfected with human PD-L1
T1 construct: Full-length surface expression construct from Genscript; also called CD274; B7-H1

[2] = target: T2, human CTLA-4, full-length, on transduced CHO cells (human, UniProt P16410 36-223); test: flow cytometry MFI on CHO/huCTLA4 relative to WT CD80 ECD-Fc (R&D)
T2 construct: Full-length surface expression construct transduced into CHO cells by lentivirus; also called huCTLA4
T2 sequence (P16410 36-223): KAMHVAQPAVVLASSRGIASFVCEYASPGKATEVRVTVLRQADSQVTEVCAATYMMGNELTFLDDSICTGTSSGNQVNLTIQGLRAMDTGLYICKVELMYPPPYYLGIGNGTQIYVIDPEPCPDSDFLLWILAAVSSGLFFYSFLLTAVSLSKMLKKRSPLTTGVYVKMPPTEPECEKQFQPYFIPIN

[3] = target: T3, human PD-L1, full-length, on transduced CHO cells (human, UniProt Q9NZQ7 19-290); test: flow cytometry MFI on CHO/huPD-L1 relative to WT CD80 ECD-Fc (R&D)
T3 construct: Full-length surface expression construct transduced into CHO cells by lentivirus; also called huPD-L1; CD274
T3 sequence (Q9NZQ7 19-290): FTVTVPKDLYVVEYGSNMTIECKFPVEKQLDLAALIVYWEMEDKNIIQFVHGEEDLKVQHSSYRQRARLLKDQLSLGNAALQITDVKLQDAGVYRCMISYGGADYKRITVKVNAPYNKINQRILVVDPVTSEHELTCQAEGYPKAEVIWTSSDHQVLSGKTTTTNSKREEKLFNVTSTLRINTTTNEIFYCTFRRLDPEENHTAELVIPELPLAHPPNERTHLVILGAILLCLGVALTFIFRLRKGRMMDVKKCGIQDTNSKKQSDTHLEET

[4] = target: T4, human CD28, endogenous on Jurkat/IL2 reporter cells (human, UniProt P10747 19-220); test: flow cytometry MFI on Jurkat (CD28) relative to WT CD80 ECD-Fc (R&D)
T4 construct: Endogenously expressed on Jurkat/IL2 reporter cells

[5] = target: T3, human PD-L1, full-length, on transduced …; test: flow cytometry; binding to CHO/huPD-L1 compared to binding to Jurkat (CD28)
[6] = target: T5, human PD-L1, expressed on cells (human, UniProt Q9NZQ7 19-290); test: flow cytometry on CHO/PD-L1 cells, then fluorescently conjugated PD-1-Fc (FIG. 9D)
T5 construct: On CHO/PD-L1, K562/OKT3/PD-L1 and CHO/OKT3/PD-L1 aAPC, huPD-L1-transduced MC38 cells, or primary human monocytes; also called huPD-L1; hPD-L1
T5 sequence (Q9NZQ7 19-290): as above

PD-1-Fc = target: T6, PD-1-Fc (UniProt Q15116 25-167); test: ForteBio (BLI), PD-1-Fc
T6 construct: not shown: Fc not described
T6 sequence (Q15116 25-167): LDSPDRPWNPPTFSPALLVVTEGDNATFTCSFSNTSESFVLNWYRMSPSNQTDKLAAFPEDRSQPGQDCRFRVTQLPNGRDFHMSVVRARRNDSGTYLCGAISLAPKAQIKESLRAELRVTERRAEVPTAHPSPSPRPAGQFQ

CD226 = target: T7, CD226 (Homo sapiens (Human), UniProt Q15762 19-336); test: flow cytometry, CD226-transfected Expi293 cells
T7 construct: Expressed on transfected cells
T7 sequence: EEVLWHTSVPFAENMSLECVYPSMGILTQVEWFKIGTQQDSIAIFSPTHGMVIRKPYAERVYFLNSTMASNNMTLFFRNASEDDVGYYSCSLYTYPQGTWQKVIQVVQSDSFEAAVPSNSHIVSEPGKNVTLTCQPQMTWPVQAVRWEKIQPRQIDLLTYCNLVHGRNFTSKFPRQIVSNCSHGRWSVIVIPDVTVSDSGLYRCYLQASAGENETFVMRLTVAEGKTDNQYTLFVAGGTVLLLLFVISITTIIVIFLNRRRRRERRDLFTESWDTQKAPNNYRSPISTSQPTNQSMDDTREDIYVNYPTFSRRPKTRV

TIGIT = target: T8, TIGIT (Homo sapiens (Human), UniProt Q495A1 23-244); test: flow cytometry, TIGIT-transfected Expi293 cells
T8 construct: Expressed on transfected Expi293 cells; also called TIGIT tfxn
T8 sequence: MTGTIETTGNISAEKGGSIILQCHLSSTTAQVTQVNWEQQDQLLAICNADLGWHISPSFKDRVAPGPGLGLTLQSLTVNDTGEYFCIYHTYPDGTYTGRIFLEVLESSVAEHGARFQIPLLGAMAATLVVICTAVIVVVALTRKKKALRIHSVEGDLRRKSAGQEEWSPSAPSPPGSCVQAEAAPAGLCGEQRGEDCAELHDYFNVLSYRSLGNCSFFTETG

T1 sequence (Q9NZQ7 19-290): as the sequence (Q9NZQ7 19-290) above

B1: variant CD80 IgV-Fc E35G/K54E/A71D/L72P (Fc fusion)
chain: VIHVTKEVKEVATLSCGHNVSVEELAQTRIYWQKGKKMVLTMMSGDMNIWPEYENRTIFDITNNLSIVILDPRPSDEGTYECVVLKYEKDAFKREHLAEVTLSVKAD
notes: not shown: which one is
[1]
  MFI at 22.2 nM: 1580 MFI

B2: variant CD80 IgV-Fc E35D/M47V/A71G (Fc fusion, not shown: a dimerising Fc or GST)
chain: VIHVTKEVKEVATLSCGHNVSVEELAQTRIYWQKDKKMVLTMMSGDVNIWPEYKNRTIFDITNNLSIVILGLRPSDEGTYECVVLKYEKDAFKREHLAEVTLSVKAD
[2]
  Fold change to WT CD80: 1.44 fold
[3]
  Fold change to WT CD80: 3.05 fold
[4]
  Fold change to WT CD80: 0.35 fold
[5]
  Ratio of PDL1:CD28: 6 ratio

B3: CD80 variant H18Y/V22A/E35D/M47V/T62S/A71G IgV (SEQ ID NO: 2275)-Fc (inert) (Fc fusion, not shown: small tags and cut ends)
chain: VIHVTKEVKEVATLSCGYNVSAEELAQTRIYWQKDKKMVLTMMSGDVNIWPEYKNRTIFDISNNLSIVILGLRPSDEGTYECVVLKYEKDAFKREHLAEVTLSVKADEPKSSDKTHTCPPCPAPEAEGAPSVFLFPPKPKDTLMISRTPEVTCVVVDVSHEDPEVKFNWYVDGVEVHNAKTKPREEQYNSTYRVVSVLTVLHQDWLNGKEYKCKVSNKALPAPIEKTISKAKGQPREPQVYTLPPSREEMTKNQVSLTCLVKGFYPSDIAVEWESNGQPENNYKTTPPVLDSDGSFFLYSKLTVDKSRWQQGNVFSCSVMHEALHNHYTQKSLSLSPG
notes: also called H18Y/V22A/E35D/M47V/T62S/A71G CD80 IgV-Fc; CD80 vIgD-Fc
[6]
  binding result: binds

B4: PD-L2 V89D IgV-Fc (Fc fusion, not shown: a dimerising Fc or GST)
chain: LFTVTVPKELYIIEHGSNVTLECNFDTGSHVNLGAITASLQKVENDTSPHRERATLLEEQLPLGKASFHIPQVQVRDEGQYQCIIIYGDAWDYKYLTLKVKA
PD-1-Fc
  Response Units: 0.005 Response Units

B5: variant CD112 IgV-Fc S118Y (Fc fusion)
chain: QDVRVQVLPEVRGQLGGTVELPCHLLPPVPGLYISLVTWQRPDAPANHQNVAAFHPKMGPSFPSPKPGSERLSFVSAKQSTGQDTEAELQDATLALHGLTVEDEGNYTCEFATFPKGYVRGMTWLRV
notes: IgV-Fc fusion; not shown: linker and Fc
CD226
  MFI: 2000 MFI
TIGIT
  MFI: 2920 MFI
